Here are results for six molecules from patent publication US20240216553A1, “DEVELOPMENT OF CD163 TARGETING AGENT FOR IMAGING AND THERAPY” (Washington University, priority 2022, published 2024).

Square brackets hold non-standard residues; d marks the D form. Ends that are not written are not given here. Peptide text beside a SMILES is read from it. * marks the point of attachment. X1 = O=C(O)CN1CCN(CC(=O)O)CCN(CC(=O)NCCN2C(=O)CC(*)C2=O)CCN(CC(=O)O)CC1

A word on the IC50: it is the midpoint of a concentration-inhibition curve.

The conditions of data set [1]: human, in vivo. As to the method:
Translation of [^64Cu]-DOTA-ECL1i for human Imaging. Animal toxicity studies with non-radioactive Cu-DOTA-ECL1i, dosimetry using [^64Cu]-DOTA-ECL1i in naïve mice were performed and submitted the exploratory investigative new drug (eIND) application to US Food Drug Administration (FDA). Following approvals from FDA, Washington University Radioactive Drug Research Committee (RDRC) and Institutional Review Board (IRB), the human dosimetry studied in six healthy volunteers (3 males, 3 females) who were injected with [^64Cu]-DOTA-ECL1i (5.2 mCi-10.4 mCi) and scanned at 15-30 min, 2-4 h, 20 h, and 44 h post injection was initiated. […] Approximately 80% of the activity was excreted in the urine within 2-4 hours after injection. […] The gender average Effective Dose was 0.064±0.012 rem/mCi (0.073 rem/mCi for females and 0.056 rem/mCi for the males). The critical organ for both genders was the urinary bladder wall, with the highest average estimated dose derived from the female model at 0.45 rad/mCi. Therefore, a dose of 8-10 mCi was injected to each patient in the HNSCC patient studies.

Data set [2] has as its target T1, recombinant human CCR2 N-terminus protein (1-42 amino acids) (Homo sapiens, UniProt P41597).
T1 construct: recombinant human CCR2 N-terminus protein (1-42 amino acids)
T1 sequence (P41597 1-42): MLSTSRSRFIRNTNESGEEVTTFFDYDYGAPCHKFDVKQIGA
Put plainly: Peptide ELISA of biotin-labelled peptides. The format is binding. Further details: dose or concentration left out as unconfirmed. The note with it: n=3/group. As to the method: Phage display screening and identification of new CCR2 binding peptides. Using a recombinant human CCR2 N-terminus protein (1-42 amino acids) with a glutathione s-transferase (GST) tag, phage display screening was performed using Ph.D.™-12 peptide library to identify sequences binding to CCR2. After three rounds of phage selections, 50 phages were selected to amplify in E. coli, titer, and for DNA sequencing. Enzyme-linked immunosorbent assay (ELISA) was performed with pre-selected phages and identified five peptide sequences showing potential binding to CCR2. These peptides conjugated with biotin labels were customized for further peptide ELISA assays. […] Therefore, these peptides were selected as CCR2 binding sequences to synthesize peptide-chelator conjugates. To further confirm the specific binding of these peptides, peptide docking studies were performed based on a crystal structure of CCR2 (PDB Id 6GPS) and receptor structures resulting from molecular dynamics simulations of CCR2 and endogenous ligand CCL2 complex using the program AutoDock CrankPep.

Data set [3] concerns the target CCR2 (human, on THP-1 cells and in human HNSCC tissue) (human) (UniProt P41597). Put plainly: in vitro binding assay using THP-1 cells (competitive receptor binding with the non-radioactive counterpart, per paragraph 179).
Data set [4] deals with T2, CD163 (human, on CD163 overexpressing U87 cells and in human carotid endarterectomy tissue) (human, UniProt Q86VB7 42-1156).
T2 construct: whole, on cells; also called CD163 receptor; human CD163
T2 sequence (Q86VB7 42-1156): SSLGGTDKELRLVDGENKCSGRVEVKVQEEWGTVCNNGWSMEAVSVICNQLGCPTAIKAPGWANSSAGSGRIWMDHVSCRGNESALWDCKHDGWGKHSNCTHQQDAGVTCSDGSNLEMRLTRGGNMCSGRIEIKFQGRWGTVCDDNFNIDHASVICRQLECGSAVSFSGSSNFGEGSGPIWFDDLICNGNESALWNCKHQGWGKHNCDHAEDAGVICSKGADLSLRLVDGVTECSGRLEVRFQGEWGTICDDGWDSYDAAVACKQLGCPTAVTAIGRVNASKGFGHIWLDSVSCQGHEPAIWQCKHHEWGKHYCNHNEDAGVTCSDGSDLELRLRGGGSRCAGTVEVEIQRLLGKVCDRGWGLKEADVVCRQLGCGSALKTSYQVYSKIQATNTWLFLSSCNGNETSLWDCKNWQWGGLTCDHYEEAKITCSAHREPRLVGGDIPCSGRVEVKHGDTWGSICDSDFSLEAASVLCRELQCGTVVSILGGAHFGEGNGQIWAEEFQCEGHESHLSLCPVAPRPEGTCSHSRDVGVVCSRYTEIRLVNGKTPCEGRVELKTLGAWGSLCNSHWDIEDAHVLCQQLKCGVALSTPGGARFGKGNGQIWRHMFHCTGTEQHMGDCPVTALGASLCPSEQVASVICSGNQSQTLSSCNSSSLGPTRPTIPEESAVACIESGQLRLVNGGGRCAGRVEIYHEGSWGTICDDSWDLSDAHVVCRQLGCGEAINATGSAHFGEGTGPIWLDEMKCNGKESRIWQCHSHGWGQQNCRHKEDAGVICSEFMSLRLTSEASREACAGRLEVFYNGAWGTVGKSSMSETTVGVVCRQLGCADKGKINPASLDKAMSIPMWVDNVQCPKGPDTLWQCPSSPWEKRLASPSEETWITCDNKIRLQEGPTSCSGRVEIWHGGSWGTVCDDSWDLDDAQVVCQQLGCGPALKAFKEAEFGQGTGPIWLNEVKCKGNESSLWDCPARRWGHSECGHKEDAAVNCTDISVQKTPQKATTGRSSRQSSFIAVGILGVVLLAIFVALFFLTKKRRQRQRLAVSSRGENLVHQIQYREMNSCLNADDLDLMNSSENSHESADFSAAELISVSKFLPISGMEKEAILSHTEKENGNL
Put plainly: competitive cell binding on U87 cells overexpressing CD163; cold ICT-01 displaces ^64Cu-ICT-01. As to the method:
The in vitro cell binding assay of ⁶⁴Cu-ICT-01 was performed in U87 cells, which overexpresses CD163 receptor.

Data set [5] deals with T2, CD163 (human, on CD163 overexpressing …). As to the kind of experiment: competitive cell binding on CD163 overexpressing U87 cells; 37 kBq ^64Cu-ICT-01 with non-radioactive ICT-01 at 10^-5-10^-10 M, gamma counting. As to the method:
An in vitro cell binding assay of ⁶⁴Cu-ICT-01 to CD163 was performed with a CD163 overexpressing U87 cell line. U87 cells seeded on a 12-well tissue culture plate were incubated at room temperature with 37 kBq of ⁶⁴Cu-ICT-01 in the presence of non-radioactive ICT-01 in increasing concentrations (10⁻⁵-10⁻¹⁰ M) in binding media (Dulbecco's Modified Eagle Medium (DMEM): 25 mM HEPES, 0.2% bovine serum albumin (BSA), and 0.3 mM 1,10-phenanthroline). The reaction media was aspirated after incubation. Cells were rinsed with 0.8 mL of ice-cold pH 7.4, 0.2% BSA/0.01 M phosphate buffered saline (PBS) twice and lysed in 0.8 mL of 1 M NaOH for 10 min. Each well was rinsed with 0.8 mL of PBS (1×, pH7.4)/0.2% BSA, which was collected into a plastic tube. The radioactivity in tubes was measured with a gamma counter (Wallac Wizard 1480, Perkin Elmer). The half-maximal inhibitory concentration (IC₅₀) for ⁶⁴Cu-ICT-01 was calculated using the GraphPad Prism (10.0.2).

In the case of `CC(C)C[C@@H](N)C(=O)NCC(=O)N[C@@H](C(=O)N[C@H](Cc1ccccc1)C(=O)N[C@H](CC(C)C)C(=O)N[C@H](CCCCN)C(=O)N[C@H](CSC1CC(=O)N(CCNC(=O)CN2CCN(CC(=O)O)CCN(CC(=O)O)CCN(CC(=O)O)CC2)C1=O)C(=O)O)[C@H](C)O` (stereo partly drawn) [[^64Cu]-DOTA-ECL1i, metal not drawn] (H-[dL]G[dT][dF][dL][dK][dC](X1)-OH; N-terminus and C-terminus assumed), in data set [1], the “Effective Dose, females” value came to 0.073 rem/mCi; the “Effective Dose, males” value came to 0.056 rem/mCi; the “gender average Effective Dose” value amounted to 0.064±0.012 rem/mCi; the “highest average estimated dose, urinary bladder wall (critical organ)” value is given as 0.45 rad/mCi.

Turning to LIPAPGGTPRAG [P21], the “binding to CCR2 N-terminus protein compared to GST tag alone and BSA” value in data set [2] was “significantly higher binding”.

Consider [^64Cu]-DOTA-ECL1i (peptide), for which the IC50 in data set [3] came to 58.3 nM.

Turning to HWKWLKPWAVNT [P15], in data set [2], the “binding to CCR2 N-terminus protein compared to GST tag alone and BSA” value is recorded as “significantly higher binding”.

In the case of VDDHYGTIVRNG [P08], the “binding to CCR2 N-terminus protein compared to GST tag alone and BSA” value in data set [2] is on record as “significantly higher binding”.

B1: ICT-01 (non-radioactive) (peptide)
peptide: WFWNHGWQWSSK
modifications: not fully specified
notes: also called non-radioactive ICT-01; CD163 targeting peptide ICT-01
On to B1, for which the IC50 in data set [4] stood at 26.8 nM; in data set [5], 14.4 nM.
